According to publication PMC11552096 (Journal of molecular biology, 2020):
Substitutions are numbered along the chain they refer to. In names and notes the source's numbering stands.

B1: apo-SUN2_(500-717) (domain or fragment, human, UniProt Q9UH99 500-717, looked up)
chain: QGKSAREAAASLSLTLQKEGVIGVTEEQVHHIVKQALQRYSEDRIGLADYALESGGASVISTRCSETYETKTALLSLFGIPLWYHSQSPRVILQPDVHPGNCWAFQGPQGFAVVRLSARIRPTAVTLEHVPKALSPNSTISSAPKDFAIFGFDEDLQQEGTLLGKFTYDQDGEPIQTFHFQAPTMATYQVVELRILTNWGHPEYTCIYRFRVHGEPAH
B2: hsSUN2_(522-717), wild type, as crystallised with KASH4 (domain or fragment, human, UniProt Q9UH99 522-717, looked up)
chain: GVTEEQVHHIVKQALQRYSEDRIGLADYALESGGASVISTRCSETYETKTALLSLFGIPLWYHSQSPRVILQPDVHPGNCWAFQGPQGFAVVRLSARIRPTAVTLEHVPKALSPNSTISSAPKDFAIFGFDEDLQQEGTLLGKFTYDQDGEPIQTFHFQAPTMATYQVVELRILTNWGHPEYTCIYRFRVHGEPAH
B3: hsSUN2_(522-717) with 4 surface point mutations Q534D, T683G, M684R, A685G (domain or fragment, human, UniProt Q9UH99 522-717, looked up)
chain: B2 chain with Q13D, T162G, M163R, A164G

Biological target: the molecule itself
Experiment: crystal structure

For B1, which “stoichiometry N” value is on record?
The value was 3.

B2 was tested. Which “stoichiometry N” value did it give?
The value was 3.

B3 was tested. Which “stoichiometry N” value did it give?
The value was 3.
